Assay results: the NTF2 design screens of Basanta et al. (2020)

Test: protease stability score; higher = more stable; yeast display proteolysis, trypsin and chymotrypsin;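 note: log10 excess protease needed over predicted unfolded state with 0 meaning unfolded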

Sequence	protease stability score
DKEELSWAKKVLEKNNWESLAENADENAKVDVGDKRYSGREQVEHLMNQLRRRVDHVEYKHIDSKGDKLVADFQVVVNGREVKVRLQMNVHNGRVRHLTMEARNEDDKRFLKEMLD	1.3
DERDDRQLNHLFRDLVHGDPDEADKLVDPNVQFTYGDRTYSGNDELQRLIDNWKKELHVTVKDIRVENQGDKVVIHIEMEYTHNGQPTSYKMSVRATAHNGKVKHMNMTSQS	0.103
DERNNKQADQFLRDMEKNDEHKLRKLADENVKFKIGDKVFRGWHDAVTEIATRIREMRVNVHRYDVKTHNGRVNLEIHQTAEYNGQPLNFSYIVIMEYQNGRLVRVNIRVSEEELKTMTQ	0.475
DNDHWRKIATDMIKALQEGDRQKVKKLVDKDAKARIGDRDVHGREHIVTLLYEMQQRIDHMQLVDVKVRGEEVVVRYHAKFNGKVVDVSITLHFRNGKVKEMRVDPRAVESLKK	1.22
DEDKARRLAEKLFEYMMKGKKDEAKKFLDPDVRYEYVDETVEGPKVAEHVVRKIRKLGMKVETKEMEIRGDKARAVFVYRNGDNQVETTVEAQYEGDKLKEVRVELTDEVKKQVTQG	0.804
DEKHAQHAAEIAEQGDPDEWEELADKDVKVDIGDQRVHGREQASSFWRKLREQADTIEYKSYRVDNGRVQLDFVVDINGHRLEFTLRFVVDNGRITEMEVQARDERQNEELKKIDS	0.524
DDHKNRERAKEIAKQFQHNNPEDLRKMFDKDARLDLGSQQYHGREDVNRALSHLSKRIDHYEIKDIKVKGDNIDIQAVVTVNGRRYSLKIILRFSNGKAKEVHFHVS	0.997
EEDLLRKLSKILHQQDTGNEETVEKNADPNARFEVGDHKIHGMDQAAREIASKIREIRQEKRIESVSVHGNKMQIHFTFTQEKNGQPQTRRATMVVVMSNGKIKSMKVQYDK	0.697
EEQLKHRLRTYIEALQTGDEKKMVEMVDPNAHIRVGDSTIHGREELRKWVQHLQREIRFQVKIRSIDVSGEHLDVKAEVRYDFNGQPVRDTLNISAEASNGTFTDLRLHIDEDVLRKIKS	1.16
DEREEAKRLWERFVRAIQHGDERRLRELLPPDVRVTVGDKEYHGRDQAVTWLQELAERVDHVSFDVRHIEVENGRLDIDAKVQMENNGRQHSFTLRIIADDHNGKFVIRSITYQ	1.84
DDELEKLITRWLEALDTNNPRQVKSNIDPNVHIEIGDKKIHGREQAMKDIHHRLERMRVEFDLKSLDSHGERASFRFRLHIRFNGRPIDIDAEVSVQVHNGKFKKMSQRISEEQAKQMSE	0.403
DDDEVRKAMRAVTNFFKGNPDQVMELIDPNAHIQVGDKSVTGREQARHLVKDVKEEQQFDVQSVDARDHGSKIVINVRFEVRHNGQPREKFMVLEMSVHNGKIQEMRVRTDS	0.946
DEDKKADEFMKRWIDNLQNGNEDELRKLIDPNARLDIGDKTLHGREDIVHHLSETLKRVDHLEIRVEHIEVQGDKATFVYHITMRTNGRTHSSEVQFEAEEHNGNLIIKSIHER	1.57
DEENVEAAHRFFEALNTNNPDELVKQFDPNARFRYGDTDIHGREHFRKWVKDQLDQIRFTLTSMTANVHNGKVRIELRFIKHHNGRPRDVNQEVRADVHNGKIKNLSVSDRG	0.563
DEENMHKLQEIIRTNDETKFNEMMDPNVEIEVGNKTYHGREEAIKFQRRVNQHVDKIQVDYVEVQGDSLRADYVVQVNGQNVRVDLEIRVEDGRAKEIRLNFRNEEEHKMYEKWLS	1.34
DDRVLHEMVKVMETGDFEKFARLADPNATIEYGDKKIHGREDAEKFATKIKQRVDHVQIKTYSVKGDSARIHFELNVNGSRIDMVLVLQVKNGRLRRASFEFRDREDSKEFVKRVH	0.068
DEEEVEEMVDQALTAIRTGDEDTFAHQFDENARMEVGDTTLHGRDEIRKEMKKFRDRADHIRIQDYKVKGNKIVIVFVARFDGRHAQITIVWVFSNGRVKHASINPNQVQEFRK	0.279
DEDKMKEIAKKFMDYLVNGHADEVRKMGKEGVRVHVGDTTIQGPDQLKEYVKKFKDQGVHNEYKEEEVKGDTITMHTKAQLGNAEVDFEVHYVVKGDKVEKFEVKTDKKQQEKFKKS	-0.352
DEERAKQVADKVFKYAINGDEEKMQKQLDPNVEYKYADTEYEGEDAARAIVRLVKQVGMEVKTQRQEVKGNTMQADFRYHNGDKEVQTTARVEYEGDKVKKVEVKVTDEVKKEAHKG	-0.068
DEHAVRRLQEFARVLERGDESKAEQYLDPEVRITVGDREINGMKTFNNFLQEVSRQMRFSLQHVEARARNGKARIIMHFQVDHNGNPEQQRIDITASLHNGRMKRMHMRTDR	0.031
